# Laboratory results: IntAct's records for PubMed 31515488
# B1: Keratin, type II cytoskeletal 79 (Homo sapiens), Q5XKE5 (parent)
# chain: MRSSVSRQTYSTKGGFSSNSASGGSGSQARTSFSSVTVSRSSGSGGGAHCGPGTGGFGSRSLYNLGGHKSISVSVAGGALLGRALGGFGFGSRAFMGQGAGRQTFGPACPPGGIQEVTVNQSLLTPLHVEIDPEIQRVRTQEREQIKTLNNKFASFIDKVRFLEQQNKVLETKWALLQEQGQNLGVTRNNLEPLFEAYLGSMRSTLDRLQSERGRLDSELRNVQDLVEDFKNKYEDEINKHTAAENEFVVLKKDVDAAYMGRMDLHGKVGTLTQEIDFLQQLYEMELSQVQTHVSNTNVVLSMDNNRNLDLDSIIAEVKAQYELIAQRSRAEAEAWYQTKYEELQVTAGKHGDNLRDTKNEIAELTRTIQRLQGEADAAKKQCQQLQTAIAEAEQRGELALKDAQKKLGDLDVALHQAKEDLTRLLRDYQELMNVKLALDVEIATYRKLLESEESRMSGECPSAVSISVTGNSTTVCGGGAASFGGGISLGGSGGATKGGFSTNVGYSTVKGGPVSAGTSILRKTTTVKTSSQRY
# partner: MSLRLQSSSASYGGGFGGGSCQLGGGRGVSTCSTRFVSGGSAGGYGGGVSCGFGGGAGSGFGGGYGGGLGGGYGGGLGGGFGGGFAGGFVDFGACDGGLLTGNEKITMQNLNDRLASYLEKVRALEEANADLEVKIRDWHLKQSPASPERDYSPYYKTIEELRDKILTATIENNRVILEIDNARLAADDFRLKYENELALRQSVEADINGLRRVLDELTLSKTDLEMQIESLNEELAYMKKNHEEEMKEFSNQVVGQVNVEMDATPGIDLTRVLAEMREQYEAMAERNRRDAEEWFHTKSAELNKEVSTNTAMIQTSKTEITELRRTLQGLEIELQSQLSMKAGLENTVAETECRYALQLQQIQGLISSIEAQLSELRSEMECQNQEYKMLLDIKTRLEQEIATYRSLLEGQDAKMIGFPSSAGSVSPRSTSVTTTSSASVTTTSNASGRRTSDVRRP
# B2: Glutathione S-transferase A2 (Homo sapiens), P09210 (parent)
# chain: MAEKPKLHYSNIRGRMESIRWLLAAAGVEFEEKFIKSAEDLDKLRNDGYLMFQQVPMVEIDGMKLVQTRAILNYIASKYNLYGKDIKEKALIDMYIEGIADLGEMILLLPFSQPEEQDAKLALIQEKTKNRYFPAFEKVLKSHGQDYLVGNKLSRADIHLVELLYYVEELDSSLISSFPLLKALKTRISNLPTVKKFLQPGSPRKPPMDEKSLEESRKIFRF
# partner: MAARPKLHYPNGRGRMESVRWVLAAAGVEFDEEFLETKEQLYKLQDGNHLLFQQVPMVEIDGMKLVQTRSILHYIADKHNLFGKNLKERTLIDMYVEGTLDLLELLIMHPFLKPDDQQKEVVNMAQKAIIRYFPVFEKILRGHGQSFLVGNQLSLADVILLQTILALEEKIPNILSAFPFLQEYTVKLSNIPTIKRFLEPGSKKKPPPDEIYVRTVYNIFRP
# B3: Progranulin (Homo sapiens), P28799 (parent)
# chain: MWTLVSWVALTAGLVAGTRCPDGQFCPVACCLDPGGASYSCCRPLLDKWPTTLSRHLGGPCQVDAHCSAGHSCIFTVSGTSSCCPFPEAVACGDGHHCCPRGFHCSADGRSCFQRSGNNSVGAIQCPDSQFECPDFSTCCVMVDGSWGCCPMPQASCCEDRVHCCPHGAFCDLVHTRCITPTGTHPLAKKLPAQRTNRAVALSSSVMCPDARSRCPDGSTCCELPSGKYGCCPMPNATCCSDHLHCCPQDTVCDLIQSKCLSKENATTDLLTKLPAHTVGDVKCDMEVSCPDGYTCCRLQSGAWGCCPFTQAVCCEDHIHCCPAGFTCDTQKGTCEQGPHQVPWMEKAPAHLSLPDPQALKRDVPCDNVSSCPSSDTCCQLTSGEWGCCPIPEAVCCSDHQHCCPQGYTCVAEGQCQRGSEIVAGLEKMPARRASLSHPRDIGCDQHTSCPVGQTCCPSLGGSWACCQLPHAVCCEDRQHCCPAGYTCNVKARSCEKEVVSAQPATFLARSPHVGVKDVECGEGHFCHDNQTCCRDNRQGWACCPYRQGVCCADRRHCCPAGFRCAARGTKCLRREAPRWDAPLRDPALRQLL
# B4: Protein FAM9B (Homo sapiens), Q8IZU0 (parent)
# chain: MAAWGKKHAGKDPVRDECEERNRFTETREEDVTDEHGEREPFAETDEHTGANTKKPEDTAEDLTAKRKRMKMDKTCSKTKNKSKHALRKKQLKRQKRDYIHSLKLLNVLEEYITDEQKEEEEEEGEEEELIRIFQEQQKKWQQYRSVRRERLKEMKLLRDQFVKALEDFEDLCDRVFSDEDSELDN
# partner: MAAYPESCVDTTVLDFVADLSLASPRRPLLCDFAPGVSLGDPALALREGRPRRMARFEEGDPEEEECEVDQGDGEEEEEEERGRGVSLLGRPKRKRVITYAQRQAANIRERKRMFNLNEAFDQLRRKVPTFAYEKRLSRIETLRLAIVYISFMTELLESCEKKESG
# B5: Septin-12 (Homo sapiens), Q8IYM1 (parent)
# chain: MDPLRRSPSPCLSSQPSSPSTPPCEMLGPVGIEAVLDQLKIKAMKMGFEFNIMVVGQSGLGKSTMVNTLFKSKVWKSNPPGLGVPTPQTLQLHSLTHVIEEKGVKLKLTVTDTPGFGDQINNDNCWDPILGYINEQYEQYLQEEILITRQRHIPDTRVHCCVYFVPPTGHCLRPLDIEFLQRLCRTVNVVPVIARADSLTMEEREAFRRRIQQNLRTHCIDVYPQMCFDEDINDKILNSKLRDRIPFAVVGADQEHLVNGRCVLGRKTKWGIIEVENMAHCEFPLLRDLLIRSHLQDLKDITHNIHYENYRVIRLNESHLLPRGPGWVNLAPASPGQLTTPRTFKVCRGAHDDSDDEF
# partner: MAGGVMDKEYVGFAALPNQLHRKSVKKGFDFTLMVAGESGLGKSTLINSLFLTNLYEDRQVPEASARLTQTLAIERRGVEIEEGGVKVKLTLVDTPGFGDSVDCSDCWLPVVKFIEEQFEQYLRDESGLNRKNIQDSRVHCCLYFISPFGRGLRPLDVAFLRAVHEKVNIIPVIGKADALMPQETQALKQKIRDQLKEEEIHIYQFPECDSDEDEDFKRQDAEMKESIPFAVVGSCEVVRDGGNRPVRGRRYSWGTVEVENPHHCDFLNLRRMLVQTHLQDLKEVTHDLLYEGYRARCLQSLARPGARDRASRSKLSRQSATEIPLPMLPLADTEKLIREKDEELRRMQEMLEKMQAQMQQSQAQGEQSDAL
# Variants of: B1
# Settings: with KRT13, P13646
row,effect of a mutation on the interaction,Variant
1,with no effect,R30C
2,with no effect,H266R

# Variants of: B2
# Settings: with gsta4_human GSTA4, O15217
row,effect of a mutation on the interaction,Variant
1,with no effect,E210A

# Variants of: B3
# Settings: with hxa1_human HOXA1, P49639
# hxa1_human HOXA1, P49639, sequence (P49639 whole entry): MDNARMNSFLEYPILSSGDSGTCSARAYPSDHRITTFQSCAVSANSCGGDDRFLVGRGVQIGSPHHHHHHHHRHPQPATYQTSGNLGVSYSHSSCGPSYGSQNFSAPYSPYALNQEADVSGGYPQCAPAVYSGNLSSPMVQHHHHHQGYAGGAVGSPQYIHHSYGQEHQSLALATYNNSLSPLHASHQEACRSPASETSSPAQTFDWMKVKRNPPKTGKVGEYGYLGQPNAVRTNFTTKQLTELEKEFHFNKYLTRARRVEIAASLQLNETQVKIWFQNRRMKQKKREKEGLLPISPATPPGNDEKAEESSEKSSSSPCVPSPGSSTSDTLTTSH
row,effect of a mutation on the interaction,Variant
1,with no effect,D536E
2,with no effect,R433W
3,with no effect,G515A

# Variants of: B3
# Settings: with glrx3_human GLRX3, O76003
# glrx3_human GLRX3, O76003, sequence (O76003 whole entry): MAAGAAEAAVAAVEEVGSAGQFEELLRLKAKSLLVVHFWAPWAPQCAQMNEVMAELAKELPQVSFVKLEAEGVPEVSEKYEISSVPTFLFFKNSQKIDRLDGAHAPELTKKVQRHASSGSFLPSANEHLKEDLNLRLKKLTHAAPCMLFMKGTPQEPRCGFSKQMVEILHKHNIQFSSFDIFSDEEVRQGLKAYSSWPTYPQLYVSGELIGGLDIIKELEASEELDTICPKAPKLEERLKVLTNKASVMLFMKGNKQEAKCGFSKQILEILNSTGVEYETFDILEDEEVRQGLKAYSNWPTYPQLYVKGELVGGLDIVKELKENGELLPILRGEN
row,effect of a mutation on the interaction,Variant
1,with no effect,D536E
2,with no effect,R433W
3,with no effect,G515A

# Variants of: B3
# Settings: with sgta_human SGTA
row,effect of a mutation on the interaction,Variant
1,with no effect,R19W

# Variants of: B3
# Settings: with otx1_human OTX1, P32242
# otx1_human OTX1, P32242, sequence (P32242 whole entry): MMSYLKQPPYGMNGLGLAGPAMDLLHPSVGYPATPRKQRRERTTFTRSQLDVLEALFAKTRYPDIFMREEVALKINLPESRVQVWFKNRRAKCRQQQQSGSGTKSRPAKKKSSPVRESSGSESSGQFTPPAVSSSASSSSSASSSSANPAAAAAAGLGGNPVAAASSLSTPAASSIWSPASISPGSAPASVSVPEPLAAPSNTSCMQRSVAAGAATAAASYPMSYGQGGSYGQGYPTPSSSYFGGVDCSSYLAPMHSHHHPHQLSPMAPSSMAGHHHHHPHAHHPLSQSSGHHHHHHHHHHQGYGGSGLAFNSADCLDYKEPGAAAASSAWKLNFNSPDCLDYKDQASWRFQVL
row,effect of a mutation on the interaction,Variant
1,with no effect,R19W

# Variants of: B4
# Settings: with fer3l_human FERD3L
row,effect of a mutation on the interaction,Variant
1,with no effect,R23H

# Variants of: B5
# Settings: with sept1_human SEPTIN1, Q8WYJ6
row,effect of a mutation on the interaction,Variant
1,disrupting interaction strength,K73N
2,disrupting interaction strength,T111M
3,disrupting interaction strength,Q213R

# The next lines start with the variant.
row,Variant,effect of a mutation on the interaction
1,C184S,with no effect
2,R311C,disrupting interaction strength
3,V162M,disrupting interaction strength
4,V263D,disrupting interaction strength
5,R204Q,disrupting interaction strength
6,T111K,disrupting interaction strength

# Variants of: B5
# Settings: with sept1_human SEPTIN1, Q8WYJ6
# Remark: another data set of the same source
row,effect of a mutation on the interaction,Variant
1,disrupting interaction strength,D197N
2,disrupting interaction strength,G169E
